Test results published in the nanobody polyreactivity screen of Harvey et al. (2022).

assay: yeast display, Sf9 membrane polyspecificity reagent, FACS + sequencing; frameworks hold sequencing errors
Summary of the method: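 After 36–48 hours of galactose induction, yeast (Saccharomyces cerevisiae BJ5465) displaying a synthetic nanobody library were stained at 4 °C for 1 hour with 10% biotinylated, detergent-solubilized Sf9 membrane reagent. Streptavidin microbeads enriched the stained cells before FACS sorting into low and high (top ~1%) gates on anti-HA and streptavidin fluorescence. Each clone's polyreactivity label reflects its gate of origin.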

Row | Sequence | polyreactivity (PSR sort gate)
1 | QDQLVESGGGLVQAGGSLRLSCAASGRTFLRYTMGWYRQAPGTETELVADITNGGTRTYYADSVKGRFTFSRDYAKNTVYLQMNRLKPEDTAVYYCGARVRYTANYDYWGQGTQVTVSS | high polyreactivity
2 | QDQLVESGGGLVQAGGSLRLSCAASGRTFPPYGMGWSRQAPGKERELVAAISKSSGSTNYADSVKGRFTISRDNAKNTVYLQMNSLKPEDTAVYYFNVDLYRWSKLAGAYRMDYWGQGTQVTVSS | low polyreactivity
3 | QDQLVESGGGLVQAGGSLRLSCAASGRTFRRNAMGWYRPAPGKERELVAAITSSGGSTYYADSVKGRFTISRDNAKNTVYLQMNSLKPEDTAVYYCNAVGKPQSSQYYYWGQGTQVTVSS | high polyreactivity
4 | QDQLVESGGGLVQAGGSLRLSCAASGRTFRVYAMGWYRQAPGKERELVATITSSGGSTYYADSVKGRFTISRDNAKNTVYLQMNCLKPEDTAVYYCAADGGSASIHDYWGQGTQVTVSS | low polyreactivity
5 | QDQLVESGGGLVQAGGSLRLSCAASGRTFRWNAMGWYRQAPGKERELVAAITKSGGSTYYADSVKGRFTISRDNAKNTVYLQMNSLKPEDTAVYYCAAPRYSTFTYDYWGQGTQVTVSS | low polyreactivity
6 | QDQLVESGGGLVQAGGSLRLSCAASGRTFSYNTMGWYRQAPGKERELVAAITRSGGSTYYADSVKGRFTISRDNAKNTVYLQINSLKPEDTAVYYCNARSWYWGQGTQVTVSS | high polyreactivity
7 | QDQLVESGGGLVQAGGSLRLSCAASGRTFTRNAMGWYRQAPGKERELVAAISISGGRPYYADSVKGRFTISRDNAKNTVYLQMNSLKPEDTAVYYWAKVTTSKYDYDYWGQGTQVTVSS | high polyreactivity
8 | QDQLVESGGGLVQAGGSLRLSCAASGRTFWVYAMGWYRQAPGKERELVAAIRRGGITNYADSVKGRFTISRDNAKNTVYLQMNSLKPEDTAVYYCATDNYGYLTRYYYWGQGTQVTVSS | low polyreactivity
9 | QDQLVESGGGLVQAGGSLRLSCAASGRTFYDNVMGWYRQAPGKERELVAAISSGASTNYADSVKGRFTISRDNAKNSVYFQMNSLKPEDSAVYYCATNGGGGWAYEYWGQGTQVTVSS | low polyreactivity
10 | QDQLVESGGGLVQAGGSLRLSCAASGRTFYQYAMGWYRQAPGKERELVAAITFRGGSTNYADSVKGRFTISRDNAKNTVYLQMNSLKPEDTAVYYCAATVYGTVYKGRSQYEYGYWGQGTQVTVSS | high polyreactivity
11 | QDQLVESGGGLVQAGGSLRLSCAASGSIFADYAMGWYRQAPGKERELVAVISRRGGTTYYADSVKGRFTISRDNAKNTVYLQMNSLKPEDTAVYYCAARRSFNEYDSWGHGTQVTVSS | high polyreactivity
12 | QDQLVESGGGLVQAGGSLRLSCAASGSIFDDYAMGWYRQAPRKERELVASISWSGGRTYYADSVKGRFTISRDNAKNTVYLQMNSLKPEDTAVYYCAAALWTGYSWGQGTQVTVSS | low polyreactivity
13 | QDQLVESGGGLVQAGGSLRLSCAASGSIFGVNDMGWYRQGAGKERELVAGINQGGGSTYYADSVKGRFTISRDNAKNSVYLQMNSLKPEETAVYYCAAVRYVLRSPARYGYWGQGTQVTVSS | low polyreactivity
14 | QDQLVESGGGLVQAGGSLRLSCAASGSIFKHNDMGWYRQAPGKERELVAAISRSGGSTYYAHSVKGRFTISRDNAKNTVYLLMNSLKPEDTAVYYCNAGRRTARYGYWGQGTQVTVSS | high polyreactivity
15 | QDQLVESGGGLVQAGGSLRLSCAASGSIFKINAMGWYRQATGKERELVATITWSTGTTYYADSVKGRFTISRDNAKNTVYLQMNSLKPEDTAVYYCATDGDSTKLDYWGQGTQVTVSS | low polyreactivity
16 | QDQLVESGGGLVQAGGSLRLSCAASGSIFLYNAMGWYRQAPGKERELVADITSAGRTYYADSVKGRFTISRDNAKNTVYLQMNSLKPEDTAVYDCNKDYHYHFSWYGYWGQGTQVTVSS | low polyreactivity
17 | QDQLVESGGGLVQAGGSLRLSCAASGSIFSGYAMGWYRQPPGKERELVAAISRRGTSTYYADSVKGRFTISRDNAKNTVYLQMNSLKPEDTAFYYCAATYGGRQSYGGFDYWGQGTQVTVSS | high polyreactivity
18 | QDQLVESGGGLVQAGGSLRLSCAASGSIFSNNAMGWYRQAPGKERELVATITFSGGNTYYADSVKGRFTISRDNAKNTVYLQMNSLKPEDTAVYYCNADRYPVGTAREYDSWGQGTQVTVSS | low polyreactivity
19 | QDQLVESGGGLVQAGGSLRLSCAASGSIFTSYAMGWYRQAPGKERELVAAITGGDSTNYADSVKGRFTISRDNAKNTVYLQMNSLKPEDTAVYYCNAADPNYFDRDTHYYWGQGTQVTVSS | low polyreactivity
20 | QDQLVESGGGLVQAGGSLRLSCAASGSILGHYDMGWYRPAPGKERELVAAISWSGGSTYYADSVKGRFTISRDNAKNTVYLQMNSLKPEDTAVYYCNAAAILYTSAGSLYWYDYWGQGTQVTVSS | low polyreactivity
21 | QDQLVESGGGLVQAGGSLRLSCAASGSISSKNAMGCYRQAPGKEREFVAVISGTGGSTYYSDSVKGRFTISRDNAKNTVYLQMNRLKPEDTAVYYCAAAGSSIVSYGYSWTYGYWGQGTQVTVSS | low polyreactivity
22 | QDQLVESGGGLVQAGGSLRLSCAASGSNFAVYAMGWSRQAPGKERELVAAISYRGARTYYADSVKGRFTISRDNAKNTVYLQMNSLKPEDTAVYYCAAQGVTSPGVDSWGQGTQVTVSS | high polyreactivity

Row | Sequence | polyreactivity (PSR sort gate)
23 | QDQLVESGGGLVQAGGSLRLSCAASGSTFEYYAMGWYRQAPGKERELVAAISSGPSTTYADSVKGRFTISRDNAKNTVYLQMNSLKPEDTAVYYCARRDGTTQALFGYDYWGQGTQVTVSS | low polyreactivity
24 | QDQLVESGGGLVQAGGSLRLSCAASGSTFEYYAMGWYRQAPGKERELVAAITRRGGSTYYADSVKGRFTISRDNAKNTVYLQMNSLKPEDTAVYYCAAVPTQKSQRTHDYCGQGTQVTVSS | low polyreactivity
25 | QDQLVESGGGLVQAGGSLRLSCAASGSTFGYYAMGWYRKAPGKERELVAAITSGASTNYADSVKGRFTISRDNAKNTVYLQMNSLKPEDTAVSYCAAGFQTRTPLNEFDYWGQGTQVTVSS | low polyreactivity
26 | QDQLVESGGGLVQAGGSLRLSCAASGSTFGYYAMGWYRQAPGKERELVAAISWRGGTYYADSVKGRFTISRDNAKNTVYLQMNSLKPEDTAVYYCAADDYIVSRYRYGVRYGYWGQGTQVTVSS | high polyreactivity
27 | QDQLVESGGGLVQAGGSLRLSCAASGSTFGYYVMGWYRQAPGKERELVAGISSSGGSTYYADSVKGRFTISRDNAKNTVYLQMNSLKPEDTAVYYCAAVRGTGTRRYDYWGQGTQVTVSS | high polyreactivity
28 | QDQLVESGGGLVQAGGSLRLSCAASGSTFHWYVMGWYRQAPGKERELVAAISQSGGNTYYADSVKGRFTISRDNAKNTVYLQMNSLKPEVTAVFYCAADSVGVFNTTFFQFEYWGQGTQVTVSS | high polyreactivity
29 | QDQLVESGGGLVQAGGSLRLSCAASGSTFLINAMGWYRQAPGKERELVAAISDSGGSTHYADSVKGRFTISRDNAKNTVYLEMNSLKPEDTAVYYCAATIPTTLILYGYWGQGTQVTVSS | low polyreactivity
30 | QDQLVESGGGLVQAGGSLRLSCAASGSTFQDYAMGWYRQAPGKERELVAAITYSGGSTYYADSVKGRFTISRDIAKNTVYLQMNSLKPEDTAVYYCAAKDTTVFYYDDDYWGHGTQVTVSS | low polyreactivity
31 | QDQLVESGGGLVQAGGSLRLSCAASGSTFRHYAMGWYRQAPGKERELVAVISWGGTSTYYADSVKGRFTISRDNAKNTVYLQMNSLKPEDTAVYYCNKAYFPIFKGYEMYYWGQGTQVTVSS | low polyreactivity
32 | QDQLVESGGGLVQAGGSLRLSCAASGSTFSIYAMGWYRQATGKERELVAAIPYSGGSTYYADSVKGRFTISRDNAKNTVYLQMNSLKPEDTAVYYCAAEVYDSRWWYSGATDDYWGQGTQVTVSS | high polyreactivity
33 | QDQLVESGGGLVQAGGSLRLSCAASGSTFSYNMGWYRQAPGKERELVARITRGGGSTYYADSVKGRFTISRDNAKNTVYLQMNSLKPEDTAVYYCAADRYFRYYYWGQGTQVTVSS | high polyreactivity
34 | QDQLVESGGGLVQAGGSLRLSCAASGSTFSYYAMGWYRQATGKERELVASISTRGGSTYYADSVKGRFTISRDNAKNTVYLQMNSLKPEDTAVYYCAATIRPRGVARVDYWGQGTQVTVSS | high polyreactivity
35 | QDQLVESGGGLVQAGGSLRLSCAASGSTFTRNSMGRYRQAPWKERELVAVISSRGGRTYYADSVKGRFTISRDNAKNSVYLPMNSLKPDDTAVYYCAARYVIPLGNTYDYWGQGTQVNVSS | high polyreactivity
36 | QDQLVESGGGLVQAGGSLRLSCAASGSTFTSNAMGWYRQAPGKERELVAAISFSDASTYYADSVKGRFTISRDNAKKTVYLQMNSLKPEDTAVYYCNADYPTTAYDYCGQGTQVTVSS | low polyreactivity
37 | QDQLVESGGGLVQAGGSLRLSCAASGSTFYRYAMGRSRQAPGTERELVAAISWRGGSTYYADSVKGRFTISRDNAKNSVYLQMNSLKPEDTAVYYCNADWYPYDQMYYWGQGTQVTVSS | low polyreactivity
38 | QDQLVESGGGLVQAGGSLRLSCAASGSTIFVYTMGWYRQAPGKERELVAAISGSGGSTSYADSVKGRFTISRDNAKNTVYLQMNSLKPEDTAVYYCAARRHVYLRGSTFEFYYWGQGTQVTVSS | high polyreactivity
39 | QDQLVESGGGLVQAGGSLRLSCAASGSTLVKYAMGWYRQAPGKERELVARITLNGGRTYYADSVKGRFTISRDNAKNTVYLQMNSLKPVDTAVYYCAKSLPHSTSRDYWGQGTQVTLSS | low polyreactivity
40 | QDQLVESGGGLVQAGGSLRLSCAASGSTLYMYAMGWYRQAPGKERELVAAISWSDDTTYYADSVKGRFTISRDNAKNTVYLQMNSLKPEDTAVYYCNAETYYGNSFGPFSYDYWGQGTQVTVSS | low polyreactivity
41 | QDQLVESGGGLVQAGGSLRLSCAASGSTSYRYSMGWYRQAPGKEREFVAAISWSGGSTYYADSVKGRFTISRDTAKNTVYLQMNSLKPEDTAVYYCAAVSRRGSARFDYWGQGTQVTVSS | high polyreactivity
42 | QDQLVESGGGLVQAGGSLRLSCAASGTIFDVYAMGWYIQAPGKERELVAAISYGGGSTYYADSVKGRFTISRDNAKNTVYLQINSLKPEDTAVYYCAADDDVYGLEYGYWGQGTQVTVSS | low polyreactivity
43 | QDQLVESGGGLVQAGGSLRLSCAASVIIFEYYTMGWYRQAPGKERELVASITYDGDSTYYADSVKRRFTISRDNAKKTVYLQMNSQTPEDTAFYSCAADYYYVYSSYGHYYWGQGTQVTVSS | low polyreactivity
